Experimental data taken from PMC5450233.

B1: GST–SKIP(1-310) [not stated] / HA–KHC [rat] (parent)
chain 1: MEPGEVKDRILENISLSVKKLQSYFAACEDEIPAIRNHDKVLQRLCEHLDHALLYGLQDLSSGYWVLVVHFTRREAIKQIEVLQHVATNLGRSRAWLYLALNENSLESYLRLFQENLGLLHKYYVKNALVCSHDHLTLFLTLVSGLEFIRFELDLDAPYLDLAPYMPDYYKPQYLLDFEDRLPSSVHGSDSLSLNSFNSVTSTNLEWDDSAIAPSSEDYDFGDVFPAVPSVPSTDWEDGDLTDTVSGPRSTASDLTSSKASTRSPTQRQNPFNEEPAETVSSSDTTPVHTTSQEKEEAQALDPPDACTEL
chain 2: MADPAECSIKVMCRFRPLNEAEILRGDKFIPKFKGEETVVIGQGKPYVFDRVLPPNTTQEQVYNACAKQIVKDVLEGYNGTIFAYGQTSSGKTHTMEGKLHDPQLMGIIPRIAHDIFDHIYSMDENLEFHIKVSYFEIYLDKIRDLLDVSKTNLAVHEDKNRVPYVKGCTERFVSSPEEVMDVIDEGKANRHVAVTNMNEHSSRSHSIFLINIKQENVETEKKLSGKLYLVDLAGSEKVSKTGAEGAVLDEAKNINKSLSALGNVISALAEGTKTHVPYRDSKMTRILQDSLGGNCRTTIVICCSPSVFNEAETKSTLMFGQRAKTIKNTVSVNLELTAEEWKKKYEKEKEKNKALKSVIQHLEVELNRWRNGEAVPEDEQISAKDQKNLEPCDNTPIIDNITPVVDGISAEKEKYDEEITSLYRQLDDKDDEINQQSQLAEKLKQQMLDQDELLASTRRDYEKIQEELTRLQIENEAAKDEVKEVLQALEELAVNYDQKSQEVEDKTRANEQLTDELAQKTTTLTTTQRELSQLQELSNHQKKRATEILNLLLKDLGEIGGIIGTNDVKTLADVNGVIEEEFTMARLYISKMKSEVKSLVNRSKQLESAQTDSNRKMNASERELAACQLLISQHEAKIKSLTDYMQNMEQKRRQLEESQDSLSEELAKLRAQEKMHEVSFQDKEKEHLTRLQDAEEVKKALEQQMESHREAHQKQLSRLRDEIEEKQRIIDEIRDLNQKLQLEQERLSSDYNKLKIEDQEREVKLEKLLLLNDKREQAREDLKGLEETVSRELQTLHNLRKLFVQDLTTRVKKSVELDSDDGGGSAAQKQKISFLENNLEQLTKVHKQLVRDNADLRCELPKLEKRLRATAERVKALESALKEAKENAMRDRKRYQQEVDRIKEAVRAKNMARRAHSAQIAKPIRPGHYPASSPTAVHAVRGGGGSSNSTHYQK

Variants of: B1
Experiment: GST pull-down, immunoblot (IB: HA) quantified
Conditions: with HA–KHC [rat]; lysates of 293T cells co-expressing HA-KHC and HA-KLC2 (kinesin-1 tetramer); three independent experiments; parent: 1; read off a plot

Variant	ratio to parent
chain 1 D238A G239A D240A	0.98
chain 1 D220A F221A G222A	0.38
chain 1 E217A D218A Y219A	0.5
chain 1 W236A E237A	0.97
